The source of these data is patent US20240425589A1, “CYTOTOXICITY-INDUCING THERAPEUTIC AGENT FOR USE IN TREATMENT OF CANCER” (CHUGAI SEIYAKU KABUSHIKI KAISHA, priority 2021, published 2024).

The test system of assay [1] is GloResponse NFAT-luc2 Jurkat cells with OVCAR3 and H1435 cells. Description: NFAT-luc2 Jurkat luciferase assay with chemotherapeutic-treated cancer cells. Format: cell-based, human. The conditions noted are these: cells treated with cisplatin or carboplatin for 5 days vs untreated. The method, then: Next, measurement was carried out based on a luciferase assay system using GloResponse NFAT-luc2 Jurkat cells (Promega, J1601) to see if T-cell-activation ability of CS4135 antibody via CD3 binding will change depending on the presence or absence of treatment by a chemotherapeutic agent.
The assay was performed as follows. First, as described above, OVCAR3 and H1435 cells treated with a chemotherapeutic agent for 5 days were detached from a culture flask and plated at 25 μL/well (2×10^4 cells) onto a white flat-bottom 96-well plate (Coster #3917). Next, 1×10^5 Jurkat/NFAT-RE reporter cell line together with the CS4135 antibody at a concentration selected from 0.003, 0.03, 0.3, 3, or 30 nM were added at 25 μL/well. After culturing overnight at 37° C., Bio-Glo reagent (Promega #G7941) was added at 75 μL/well followed by further incubation at room temperature for 10 minutes. Then, luminescence arose from activated Jurkat cells was measured using an EnSpire (PerkinElmer Japan) device. The luminescence magnification of each well was calculated by comparing the wells with the antibody to the wells without the antibody.

The next assay concerns OVCAR3. Kind of assay: OVCAR3 xenograft in huNOG mice, combination with carboplatin. Format: in vivo. Particulars: 56 days after transplantation; CS4135 0.1 mg/kg iv days 38, 45 (sequential: 48, 55), carboplatin 60 mg/kg ip days 38, 45. The method, then:
In this test, NOG (huNOG) mice (described in the aforementioned Example 13) transplanted with ovarian cancer cell line OVCAR3 and human CD34-positive cells were used. The OVCAR3 cell line was transplanted subcutaneously to the right flank of the mice, and the mice were divided into groups 38 days after transplantation. Individuals whose tumor volume reached 119 to 210 mm^3 were divided into groups. Vehicle 1 and CS4135 were administered into the mouse tail vein 38 and 45 days after transplantation. PBS containing 0.05% Tween-20 was used as Vehicle 1. Vehicle 2 and carboplatin (Bristol Myers Squibb Company) were administered intraperitoneally to the mice 38 and 45 days after transplantation. Physiological saline was used as Vehicle 2.
Tumor volume was measured 38, 42, 45, 48, 52, and 56 days after transplantation, and the average tumor volume was indicated for each group. The tumor volume was calculated by the following equation: […]
Tumor Growth Inhibition (TGI) was calculated by the following equation: […]

Another assay concerns the target recombinant cyno CD137 (Macaca fascicularis, UniProt A9YYE7). Description: Biacore 8K SPR affinity to cyno CD137. Particulars: cyno CD137, 37 degree C, pH 7.4. Format: binding, cynomolgus. The method, then: The binding affinity of the anti-CLDN6/Dual-Fab tri-specific antibody against recombinant human and cyno CD3eg (gamma and epsilon subunits of CD3) at pH 7.4 was determined at 25 degree C. using Biacore 8K instrument (GE Healthcare). The binding affinity of the anti-CLDN6/Dual-Fab tri-specific antibody against recombinant human and cyno CD137 at pH 7.4 was determined at 37 degree C. using Biacore 8K instrument (GE Healthcare). Anti-human Fc (GE Healthcare) antibody was immobilized onto all flow cells of a CM4 sensor chip using amine coupling kit (GE Healthcare). Tested antibody and analytes were prepared in ACES pH 7.4 containing 20 mM ACES, 150 mM NaCl, 0.05% Tween 20, 0.005% NaN3. Anti-CLDN6/Dual-Fab tri-specific antibody was captured onto the sensor surface by anti-human Fc. Antibody capture levels were aimed at 300 resonance unit (RU). Recombinant CD3eg and CD137 were injected at both 500 and 2000 nM, followed by dissociation. Sensor surface was regenerated each cycle with 3M MgCl2. […] Binding affinities were determined by processing and fitting the data to 1:1 binding model using Biacore Insight Evaluation software (GE Healthcare).

In another assay the target is T1, human CLDN6 VLP (Homo sapiens, UniProt P56747).
T1 sequence (P56747 1-220): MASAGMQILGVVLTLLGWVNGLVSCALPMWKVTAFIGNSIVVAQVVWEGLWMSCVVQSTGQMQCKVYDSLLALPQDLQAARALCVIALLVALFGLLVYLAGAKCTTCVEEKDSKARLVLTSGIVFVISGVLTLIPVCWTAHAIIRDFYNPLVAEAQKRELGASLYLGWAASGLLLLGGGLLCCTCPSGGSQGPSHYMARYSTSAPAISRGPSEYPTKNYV
Kind of assay: Biacore T200 SPR affinity to human CLDN6 VLP. Format: binding. Particulars: human CLDN6, 25 degree C, pH 7.4. The method, then: (§1) The binding affinity of the anti-CLDN6/Dual-Fab tri-specific antibody against human and cynomolgus (cyno) CLDN6 VLP (virus-like particle) at pH 7.4 was determined at 25 degree C. using Biacore T200 instrument (GE Healthcare). Anti-human CD81 (BD Pharmingen) antibody was immobilized onto all flow cells of a C1 sensor chip using amine coupling kit (GE Healthcare). Human and cyno CLDN6 VLP were captured onto the sensor surface by the anti-human CD81 antibody. Each VLP was 5-fold dilution by buffer (20 mM NaPhosphate, 150 mM NaCl, 0.1 mg/mL BSA, 0.005% NaN3, pH 7.4). Tested antibody was prepared in buffer (20 mM NaPhosphate, 150 mM NaCl, 0.1 mg/mL BSA, 0.005% NaN3, pH 7.4). Anti-CLDN6/Dual-Fab tri-specific antibody was injected at 50 and 200 nM, followed by dissociation. Sensor surface was regenerated each cycle with 0.1% SDS and 100 mM H3PO4. […] Binding affinities were determined by processing and fitting the data to 1:1 binding model using Biacore T200 Evaluation software, version 2.0 (GE Healthcare).

In a further assay the test system is cyno CLDN6 VLP. Description: Biacore T200 SPR affinity to cyno CLDN6 VLP. Particulars: cyno CLDN6, 25 degree C, pH 7.4. The format is binding, cynomolgus. The method, then: as §1
A further assay has as its system OV-90. Kind of assay: Mouse peritoneal dissemination model. The conditions noted are these: 5 mg/kg iv. The format is in vivo, NOD/ShiJic-scid Jcl mice. As for the experimental part:
To evaluate the effect of anti-CLDN6/Dual-Fab tri-specific antibody CS4135 (the same antibody as PPU4135 described in Table 9 of Example 6 described above) against peritoneal metastasis of ovary cancer, the drug efficacy was evaluated using a mouse peritoneal dissemination model. Human ovarian cancer cell line OV-90 (ATCC) was used as target cells. OV-90 cells were transplanted intraperitoneally to NOD/ShiJic-scid Jcl mice at 5×10^6 cells/500 μL/animal. Three days after transplantation, human T cells separated from human PBMC and expansively cultured using Dynabeads Human T-Activator CD3/CD28 (Gibco) were administered intravenously at 3×10^7 cells/400 μL. Furthermore, the vehicle (PBS containing 0.05% Tween-20) or a CS4135 antibody solution at 5 mg/kg was administered intravenously.
After tumor transplantation, the mice were observed every 2 to 7 days, and the conditions of the mice were assessed according to the humane endpoint guideline.

Sequence of recombinant cyno CD137 (A9YYE7 1-254): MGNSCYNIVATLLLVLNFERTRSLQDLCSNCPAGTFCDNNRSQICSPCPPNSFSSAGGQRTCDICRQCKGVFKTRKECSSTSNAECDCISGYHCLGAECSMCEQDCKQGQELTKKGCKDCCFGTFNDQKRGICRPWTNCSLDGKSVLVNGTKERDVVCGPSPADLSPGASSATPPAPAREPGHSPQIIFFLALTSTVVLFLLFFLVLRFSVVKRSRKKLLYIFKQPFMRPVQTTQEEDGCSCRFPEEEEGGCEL

B1: PPU4135: anti-CLDN6/Dual-Fab tri-specific antibody, chains SEQ ID NOs 42, 51, 56, 69; CS4135 same antibody (protein)
chain 1: QVQLVESGGGVVQPGGSLRLSCAASGFTFSSYTMSWVRQAPGQGLEWMGTISSGGGRTYYPDSVKGRFTISRDNSKNTLYLQMNSLRDEDTAVYYCARGDYRYDGFAYWGEGTLVTVSSASTKGPSVFPLAPSSKSTSGGTAALGCLVEDYFPEPVTVSWNSGALTSGVHTFPAVLESSGLYSLSSVVTVPSSSLGTQTYICNVNHKPSNTKVDKRVEPKSCDKTHTCPPCPAPEAAGGPSVFLFPPKPKDTLMISRTPEVTCVVVDVSHEDPEVKFNWYVDGVEVHNAKTKPREEQYASTYRVVSVLTVLHQDWLNGKEYKCKVSNKALPAPIEKTISKAKGQPREPQVYTLPPSREEMTKNQVSLTCLVKGFYPSDIAVEWESNGQPENNYKTTPPVLDSDGSFFLYSKLTVDKSRWQQGNVFSCSVMHEALHNHYTQESLSLSP
chain 2: DIQMTQSPSSLSASVGDRVTITCRASYNIDSYLAWYQQKPGKAPELLIYYSTLLVDGVPDRFSGSRSGTDFTLTISSLQPEDFATYYCQHYYSIPYTFGQGTKVEIERTVAAPSVFIFPPSDEQLKSGTAKVVCLLNNFYPREAKVQWKVDNALQSGNSKESVTEQDSKDSTYSLSSTLTLSKADYEKHKVYACEVTHQGLSSPVTKSFNRGEC
chain 3: QVQLVESGGGLVQPGRSLRLSCAASGFKFSNVWFHWVRQAPGKGLEWVAQIKDYYNAYAAYYAPSVKGRFTISRDDSKNSIYLQMNSLKTEDTAVYYCHYVHYASASTLLPAEGVDAWGQGTTVTVSSASTKGPSVFPLAPSSKSTSGGTAALGCLVKDYFPEPVTVSWNSGALTSGVHTFPAVLKSSGLYSLSSVVTVPSSSLGTQTYICNVNHKPSNTKVDKRVEPKSCDKTHTCPPCPAPEAAGGPSVFLFPPKPKDTLMISRTPEVTCVVVDVSHEDPEVKFNWYVDGVEVHNAKTKPREEQYASTYRVVSVLTVLHQDWLNGKEYKCKVSNKALPAPIEKTISKAKGQPREPQVYTLPPSRKEMTKNQVSLTCLVKGFYPSDIAVEWESNGQPENNYKTTPPVLDSDGSFFLYSKLTVDKSRWQQGNVFSCSVMHEALHNHYTQKSLSLSP
chain 4: DIVMTQSPLSLPVTPGEPASISCQPSQEVVHMNRNTYLHWYQQKPGQAPRLLIYKVSNRFPGVPDRFSGSGSGTDFTLKISRVEAEDVGVYYCAQGTSHPFTFGQGTKLEIKRTVAAPSVFIFPPSDEQLKSGTAEVVCLLNNFYPREAKVQWKVDNALQSGNSEESVTEQDSKDSTYSLSSTLTLSKADYEKHKVYACEVTHQGLSSPVTKSFNRGEC
Turning to B1, the “T cell activation ability via CD3” value in assay [1] was “enhanced”. In the assay on OVCAR3, the “Tumor growth inhibition: TGI” value is on record as 18%. The ka came out at 8350 M⁻¹ s⁻¹ with recombinant cyno CD137, 217000 M⁻¹ s⁻¹ with human CLDN6 VLP and 218000 M⁻¹ s⁻¹ in the assay with cyno CLDN6 VLP. Besides, the kd with recombinant cyno CD137 came to 0.00146 s⁻¹; with human CLDN6 VLP, 0.000794 s⁻¹; at cyno CLDN6 VLP, 0.000821 s⁻¹. Besides, the “50% survival rate found” value with OV-90 is given as 71 days after transplantation. The “mice showing aggravated conditions observed from” value in the assay on OV-90 (vehicle from 48 days) was 57 days after transplantation. The survival rate came out at 78% with OV-90 (66 days after transplantation) and 22% in the assay on OV-90 (80 days after transplantation).
